# Experimental data reported in article PMC8497999 (iScience, 2021).
# T1: ACAD9 (non-tagged wild type) (human, UniProt Q9H845 38-621)
# T1 sequence: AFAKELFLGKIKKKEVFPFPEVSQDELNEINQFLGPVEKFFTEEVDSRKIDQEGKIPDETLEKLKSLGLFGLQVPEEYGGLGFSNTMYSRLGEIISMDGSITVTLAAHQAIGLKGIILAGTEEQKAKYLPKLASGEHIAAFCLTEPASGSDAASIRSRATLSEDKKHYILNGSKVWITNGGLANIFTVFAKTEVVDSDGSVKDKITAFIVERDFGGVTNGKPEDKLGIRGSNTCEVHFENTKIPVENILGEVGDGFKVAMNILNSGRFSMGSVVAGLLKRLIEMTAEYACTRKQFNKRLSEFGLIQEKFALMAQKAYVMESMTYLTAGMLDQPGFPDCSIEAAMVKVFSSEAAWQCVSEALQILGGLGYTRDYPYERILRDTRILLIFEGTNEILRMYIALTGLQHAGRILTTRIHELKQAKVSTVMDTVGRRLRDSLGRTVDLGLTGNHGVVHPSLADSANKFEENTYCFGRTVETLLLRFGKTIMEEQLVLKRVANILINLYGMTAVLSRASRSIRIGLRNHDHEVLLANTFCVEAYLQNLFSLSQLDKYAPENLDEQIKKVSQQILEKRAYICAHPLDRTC
# B1: ACAD9-His6 (wild type ACAD9 with a C-terminal His-tag) (enzyme)
# chain: AFAKELFLGKIKKKEVFPFPEVSQDELNEINQFLGPVEKFFTEEVDSRKIDQEGKIPDETLEKLKSLGLFGLQVPEEYGGLGFSNTMYSRLGEIISMDGSITVTLAAHQAIGLKGIILAGTEEQKAKYLPKLASGEHIAAFCLTEPASGSDAASIRSRATLSEDKKHYILNGSKVWITNGGLANIFTVFAKTEVVDSDGSVKDKITAFIVERDFGGVTNGKPEDKLGIRGSNTCEVHFENTKIPVENILGEVGDGFKVAMNILNSGRFSMGSVVAGLLKRLIEMTAEYACTRKQFNKRLSEFGLIQEKFALMAQKAYVMESMTYLTAGMLDQPGFPDCSIEAAMVKVFSSEAAWQCVSEALQILGGLGYTRDYPYERILRDTRILLIFEGTNEILRMYIALTGLQHAGRILTTRIHELKQAKVSTVMDTVGRRLRDSLGRTVDLGLTGNHGVVHPSLADSANKFEENTYCFGRTVETLLLRFGKTIMEEQLVLKRVANILINLYGMTAVLSRASRSIRIGLRNHDHEVLLANTFCVEAYLQNLFSLSQLDKYAPENLDEQIKKVSQQILEKRAYICAHPLDRTC
# What was measured:
# [1] = target: B1; test: pull-down
# [2] = target: the molecule itself; test: SEC
# [3] = target: T1, ACAD9 (non-tagged wild type); test: SEC
Binder,stoichiometry N [1],stoichiometry N [2],stoichiometry N [3]
"ECSIT, tag-free (mature human mitochondrial ECSIT) (natural protein) SSEQSLVPSPPEPRQRPTKALVPFEDLFGQAPGGERDKASFLQTVQKFAEHSVRKRGHIDFIYLALRKMREYGVERDLAVYNQLLNIFPKEVFRPRNIIQRIFVHYPRQQECGIAVLEQMENHGVMPNKETEFLLIQIFGRKSYPMLKLVRLKLWFPRFMNVNPFPVPRDLPQDPVELAMFGLRHMEPDLSARVTIYQVPLPKDSTGAADPPQPHIVGIQSPDQQAALARHNPARPVFVEGPFSLWLRNKCVYYHILRADLLPPEEREVEETPEEWNLYYPMQLDLEYVRSGWDNYEFDINEVEEGPVFAMCMAGAHDQATMAKWIQGLQETNPTLAQIPVVFRLAGSTRELQTSSAGLEEPPLPEDHQEEDDNLQRQQQGQS",~1 monomer:monomer,,
Loop12-ACAD9 (ACAD9-His6 with the linker between Thr450 and Asp480 replaced by 12 residues of GGS repeats) (enzyme) AFAKELFLGKIKKKEVFPFPEVSQDELNEINQFLGPVEKFFTEEVDSRKIDQEGKIPDETLEKLKSLGLFGLQVPEEYGGLGFSNTMYSRLGEIISMDGSITVTLAAHQAIGLKGIILAGTEEQKAKYLPKLASGEHIAAFCLTEPASGSDAASIRSRATLSEDKKHYILNGSKVWITNGGLANIFTVFAKTEVVDSDGSVKDKITAFIVERDFGGVTNGKPEDKLGIRGSNTCEVHFENTKIPVENILGEVGDGFKVAMNILNSGRFSMGSVVAGLLKRLIEMTAEYACTRKQFNKRLSEFGLIQEKFALMAQKAYVMESMTYLTAGMLDQPGFPDCSIEAAMVKVFSSEAAWQCVSEALQILGGLGYTRDYPYERILRDTRILLIFEGTNEILRMYIALTGLQHAGRILTTGGSGGSGGSGGSDLGLTGNHGVVHPSLADSANKFEENTYCFGRTVETLLLRFGKTIMEEQLVLKRVANILINLYGMTAVLSRASRSIRIGLRNHDHEVLLANTFCVEAYLQNLFSLSQLDKYAPENLDEQIKKVSQQILEKRAYICAHPLDRTC,,2,
ACAD9-His6 R469W (enzyme) AFAKELFLGKIKKKEVFPFPEVSQDELNEINQFLGPVEKFFTEEVDSRKIDQEGKIPDETLEKLKSLGLFGLQVPEEYGGLGFSNTMYSRLGEIISMDGSITVTLAAHQAIGLKGIILAGTEEQKAKYLPKLASGEHIAAFCLTEPASGSDAASIRSRATLSEDKKHYILNGSKVWITNGGLANIFTVFAKTEVVDSDGSVKDKITAFIVERDFGGVTNGKPEDKLGIRGSNTCEVHFENTKIPVENILGEVGDGFKVAMNILNSGRFSMGSVVAGLLKRLIEMTAEYACTRKQFNKRLSEFGLIQEKFALMAQKAYVMESMTYLTAGMLDQPGFPDCSIEAAMVKVFSSEAAWQCVSEALQILGGLGYTRDYPYERILRDTRILLIFEGTNEILRMYIALTGLQHAGRILTTRIHELKQAKVSTVMDTVGWRLRDSLGRTVDLGLTGNHGVVHPSLADSANKFEENTYCFGRTVETLLLRFGKTIMEEQLVLKRVANILINLYGMTAVLSRASRSIRIGLRNHDHEVLLANTFCVEAYLQNLFSLSQLDKYAPENLDEQIKKVSQQILEKRAYICAHPLDRTC,,2,
ACAD9-His6 R532W (enzyme) AFAKELFLGKIKKKEVFPFPEVSQDELNEINQFLGPVEKFFTEEVDSRKIDQEGKIPDETLEKLKSLGLFGLQVPEEYGGLGFSNTMYSRLGEIISMDGSITVTLAAHQAIGLKGIILAGTEEQKAKYLPKLASGEHIAAFCLTEPASGSDAASIRSRATLSEDKKHYILNGSKVWITNGGLANIFTVFAKTEVVDSDGSVKDKITAFIVERDFGGVTNGKPEDKLGIRGSNTCEVHFENTKIPVENILGEVGDGFKVAMNILNSGRFSMGSVVAGLLKRLIEMTAEYACTRKQFNKRLSEFGLIQEKFALMAQKAYVMESMTYLTAGMLDQPGFPDCSIEAAMVKVFSSEAAWQCVSEALQILGGLGYTRDYPYERILRDTRILLIFEGTNEILRMYIALTGLQHAGRILTTRIHELKQAKVSTVMDTVGRRLRDSLGRTVDLGLTGNHGVVHPSLADSANKFEENTYCFGRTVETLLLRFGKTIMEEQLVLKWVANILINLYGMTAVLSRASRSIRIGLRNHDHEVLLANTFCVEAYLQNLFSLSQLDKYAPENLDEQIKKVSQQILEKRAYICAHPLDRTC,,2,
ACAD9-His6 R518H (enzyme) AFAKELFLGKIKKKEVFPFPEVSQDELNEINQFLGPVEKFFTEEVDSRKIDQEGKIPDETLEKLKSLGLFGLQVPEEYGGLGFSNTMYSRLGEIISMDGSITVTLAAHQAIGLKGIILAGTEEQKAKYLPKLASGEHIAAFCLTEPASGSDAASIRSRATLSEDKKHYILNGSKVWITNGGLANIFTVFAKTEVVDSDGSVKDKITAFIVERDFGGVTNGKPEDKLGIRGSNTCEVHFENTKIPVENILGEVGDGFKVAMNILNSGRFSMGSVVAGLLKRLIEMTAEYACTRKQFNKRLSEFGLIQEKFALMAQKAYVMESMTYLTAGMLDQPGFPDCSIEAAMVKVFSSEAAWQCVSEALQILGGLGYTRDYPYERILRDTRILLIFEGTNEILRMYIALTGLQHAGRILTTRIHELKQAKVSTVMDTVGRRLRDSLGRTVDLGLTGNHGVVHPSLADSANKFEENTYCFGRTVETLLLHFGKTIMEEQLVLKRVANILINLYGMTAVLSRASRSIRIGLRNHDHEVLLANTFCVEAYLQNLFSLSQLDKYAPENLDEQIKKVSQQILEKRAYICAHPLDRTC,,2,
B1,,2,
ACAD9-His6 E426Q (enzyme) AFAKELFLGKIKKKEVFPFPEVSQDELNEINQFLGPVEKFFTEEVDSRKIDQEGKIPDETLEKLKSLGLFGLQVPEEYGGLGFSNTMYSRLGEIISMDGSITVTLAAHQAIGLKGIILAGTEEQKAKYLPKLASGEHIAAFCLTEPASGSDAASIRSRATLSEDKKHYILNGSKVWITNGGLANIFTVFAKTEVVDSDGSVKDKITAFIVERDFGGVTNGKPEDKLGIRGSNTCEVHFENTKIPVENILGEVGDGFKVAMNILNSGRFSMGSVVAGLLKRLIEMTAEYACTRKQFNKRLSEFGLIQEKFALMAQKAYVMESMTYLTAGMLDQPGFPDCSIEAAMVKVFSSEAAWQCVSEALQILGGLGYTRDYPYERILRDTRILLIFQGTNEILRMYIALTGLQHAGRILTTRIHELKQAKVSTVMDTVGRRLRDSLGRTVDLGLTGNHGVVHPSLADSANKFEENTYCFGRTVETLLLRFGKTIMEEQLVLKRVANILINLYGMTAVLSRASRSIRIGLRNHDHEVLLANTFCVEAYLQNLFSLSQLDKYAPENLDEQIKKVSQQILEKRAYICAHPLDRTC,,2,
"His6-C-ECSIT (C-terminal domain of ECSIT, Leu249-Ser431, with N-terminal His tag) (domain or fragment) LPKDSTGAADPPQPHIVGIQSPDQQAALARHNPARPVFVEGPFSLWLRNKCVYYHILRADLLPPEEREVEETPEEWNLYYPMQLDLEYVRSGWDNYEFDINEVEEGPVFAMCMAGAHDQATMAKWIQGLQETNPTLAQIPVVFRLAGSTRELQTSSAGLEEPPLPEDHQEEDDNLQRQQQGQS",,4,1 C-ECSIT monomer per ACAD9 monomer (4:4)
"C-ECSIT, tag-free (C-terminal domain of ECSIT, Leu249-Ser431) (domain or fragment) LPKDSTGAADPPQPHIVGIQSPDQQAALARHNPARPVFVEGPFSLWLRNKCVYYHILRADLLPPEEREVEETPEEWNLYYPMQLDLEYVRSGWDNYEFDINEVEEGPVFAMCMAGAHDQATMAKWIQGLQETNPTLAQIPVVFRLAGSTRELQTSSAGLEEPPLPEDHQEEDDNLQRQQQGQS",~1 monomer:monomer,,
